Test results taken from patent publication US10253082B2, “Long-acting insulin and use thereof” (HANMI PHARM. CO., LTD., priority 2014, dated 2019).

Molecular target: Insulin receptors (Homo sapiens, UniProt P06213)
Experiment: Insulin receptor binding affinity by surface plasmon resonance (BIACORE 3000)
Settings: for ka / kd: SPR, immobilized insulin receptor, 1:1 Langmuir binding with baseline drift, Test 1-5 runs; for receptor binding affinity (KD) compared to human insulin: native human insulin of the same test = 100%
Procedure: Then, the insulin receptor binding affinity of each substance was examined. The binding affinity of each substance was calculated using BIAevaluation software. At this time, the model used was 1:1 Langmuir binding with baseline drift.

Substance	ka	kd	receptor binding affinity (KD) compared to human insulin
Insulin analog (No. 6): insulin analog, modified sequence B^24F->A; protein SEQ ID NO: 30	0.28 1/Ms, ×10^5	6.60 1/s, ×10^−3	(14.8%)
Insulin analog (No. 7): insulin analog, modified sequence B^25F->A; protein SEQ ID NO: 32	0.14 1/Ms, ×10^5	8.34 1/s, ×10^−3	(9.9%)
Insulin analog (No. 8): insulin analog, modified sequence A^14Y->E; protein SEQ ID NO: 34	1.78 1/Ms, ×10^5	12.9 1/s, ×10^−3	(57.1%)
Insulin analog (No. 9): insulin analog, modified sequence A^14Y->N; protein SEQ ID NO: 36	1.85 1/Ms, ×10^5	11.9 1/s, ×10^−3	(78.8%)
